Experimental data from patent US20180369425A1, “LINKED AND OTHER pH-TRIGGERED COMPOUNDS” (priority 2017, published 2018).
Values joined by “and” are separate entries in the source; they are usually repeats but may differ in a detail not shown here. Equal entries are not always repeated. Residues, ends and D or L forms follow the SMILES beside them. *: point of attachment. X1 = CC1(C)C(/C=C/C=C/C=C/C=C2/N(CCCCCC(=O)NCCN3C(=O)CC(*)C3=O)c3ccc4ccccc4c3C2(C)C)=[N+](CCCCS(=O)(=O)[O-])c2ccc3ccccc3c21

Columns and labels:
[1] = Blood clearance of ICG-pHLIP after single tail vein injection; assay type: in vivo, mouse; details: for Concentration in blood, Mean ± St. D.: 5 animals; for Concentration in blood, Mean ± St. D. / Concentration in blood: 2.5 nmol tail vein; for Concentration in blood: individual animal, listed as ICG-Var3
Description: BALB/cAcNHsd mice ranging in age from 5 to 6 weeks obtained from Envigo RMS Inc were used in the study. Mouse mammary 4T1 cancer cells were subcutaneously implanted in the right flank (8×10^5 cells/0.1 mL/flank) of adult female mice. Triple negative 4T1 tumor model closely mimics stage IV of human breast cancer. When tumors reached 5-6 mm in diameter, single tail vein injections of 2.5 nmol (or 0.5 mg/kg) of ICG-pHLIP in sterile PBS with 5% DMSO or 5% Ethanol (volume of the injection was 100 μl) were performed. The whole body and ex vivo imaging was performed using a Stryker 1588 AIM clinical imaging system with L10 AIM Light Source, 1588 AIM Camera using a 10 mm or 5 mm scope.
Animals were euthanized at time points: 5 min, 1 hr, 2 hrs, 4 hrs, 6 hrs, 16 hrs, 26 hrs and 48 hrs. […] 100 μl of blood was collected immediately after euthanasia and mixed with 12.5 μl of citrate-dextrose anticoagulant solution (kept at 4° C.), and necropsy was performed. Tumor, muscles, skin, heart, lungs, liver, spleen, kidneys, brain, pancreas, bone, stomach, small and large intestines were collected, imaged immediately after collection, weighed, and fast frozen in liquid nitrogen.
Blood samples mixed with of anti-coagulant solution were placed in 384 well plates (MatTek, glass bottom) (15 μL per well) and imaged on an Odyssey IR scanner (Li-Cor Biosciences). […] The same amounts (15 μL) of blood samples were placed in 384 well plate and imaged together with all other blood samples. The digital images were processed using the Image J program to calculate mean fluorescence intensity. The calibration curve (known concentration of ICG-pHLIP in blood samples vs intensity) was constructed to calculate the amount of ICG-pHLIP in blood samples collected from the mice at different times after construct administration.

in vivo = details: female, BALB/cAcNHsd, mouse, iv, 2.5 nmol, 4 hours post injection, constant up to 16 hours, rough estimation, read-out: amount of ICG-pHLIP in tumors
Description: The fluorescence signals in organs and tissue were also measured in the tissue/organ homogenates and compared with the signals from the control tissue/organ homogenates (collected from control mice) mixed with known amounts of ICG-pHLIP. About 100 mg of tissue (tumor, liver or kidney) were homogenized with 2.5× (about 250 μL) volumes of DMSO using BioMasher II disposable homogenizers (DiagnoCine LLC). 30 μl of homogenate was placed into 384 well plate and imaged using an Odyssey IR scanner. Tumor, liver or kidney homogenates of control mice, mixed with known concentrations of ICG-pHLIP were used to establish the calibration curve. First, note that the fluorescence signals obtained on the control tumor, liver and kidney mixed with the known amounts of ICG-pHLIP were the same. Second, the course of signal changes in tumor, liver and kidney (data not shown) was in excellent correlation with the course of the kinetics presented on FIGS. 18A-F. It is rather difficult to establish precisely the amount of ICG-pHLIP in the tissue and organ samples; however, rough estimations can be made using the calibration curve. […] At 26 hours, when the blood is cleared and the fluorescence signal in all organs is minimal, the contrast between tumor and surrounding tissue is very significant.

red blood cells (RBCs) = assay: Hemolysis assay with ICG-pHLIP; assay type: cell-based, human; details: 0.075 to 1.2 nmol in 150 μL, 37° C., 2 hours
Description: Single donor human whole blood was purchased from Innovative Research. Red blood cells (RBCs) were collected by centrifugation of whole blood at 2000 rpm for 10 minutes followed by washing three times with Dulbecco's PBS (DPBS) and re-suspended in DPBS at a concentration of 7.5% (v:v). Varying concentrations of ICG-pHLIP (0.075, 0.15, 0.3, 0.6, 1.2 nmol) in DPBS were added to RBCs to give a 5% RBC suspension (total volume of solution with RBC was 150 μL). The resultant mixtures were incubated at 37° C. for 2 hours and then centrifuged at 2000 rpm for 10 min. Hemolysis was assessed by the release of hemoglobin, which was monitored by measuring the absorbance at 450 nm of the supernatant hemoglobin. DPBS was used as negative controls. As positive controls, which result in 100% lysis of RBCs, we used i) water and ii) 10% of Triton X-100. The percentage of hemolysis was calculated as follows: […]
where, ODTest, ODNC, and ODPC are the optical density reading (absorbance) values of the test sample, negative control and positive control, respectively. The assay was performed in triplicate. The amount of RBC lysis was less than 2% in all samples. For the reference, in mice study 2.5 nmol of ICG pHLIP® is injected per mouse (a 20 g mouse has about 1.2 mL of blood), or 2.08 nmol/ml (the dose will be much lower in humans), while in hemolysis assay the maximum tested concentration was 8 nmol/ml.

SMILES: CC(C)C[C@H](NC(=O)[C@H](Cc1ccc(O)cc1)NC(=O)[C@H](C)NC(=O)[C@H](CCCNC(=N)N)NC(=O)[C@H](Cc1c[nH]c2ccccc12)NC(=O)[C@@H]1CCCN1C(=O)[C@H](CC(N)=O)NC(=O)[C@H](CCC(N)=O)NC(=O)[C@H](CC(=O)O)NC(=O)[C@H](CC(=O)O)NC(=O)[C@H](CSC1CC(=O)N(CCNC(=O)CCCCCN2/C(=C/C=C/C=C/C=C/C3=[N+](CCCCS(=O)(=O)[O-])c4ccc5ccccc5c4C3(C)C)C(C)(C)c3c2ccc2ccccc32)C1=O)NC(=O)[C@H](C)N)C(=O)N[C@@H](CC(=O)O)C(=O)N[C@@H](CC(C)C)C(=O)N[C@@H](CC(C)C)C(=O)N[C@@H](Cc1ccccc1)C(=O)N1CCC[C@H]1C(=O)N[C@H](C(=O)N[C@@H](CC(=O)O)C(=O)N[C@H](C(=O)N[C@@H](CC(C)C)C(=O)N[C@@H](CC(C)C)C(=O)N[C@@H](CC(C)C)C(=O)N[C@@H](CC(=O)O)C(=O)N[C@@H](CC(C)C)C(=O)N[C@@H](CC(C)C)C(=O)N[C@@H](Cc1c[nH]c2ccccc12)C(=O)N[C@@H](C)C(=O)O)[C@@H](C)O)[C@@H](C)O (stereo partly shown) [ICG-pHLIP] (H-AC(X1)DDQNPWRAYLDLLFPTDTLLLDLLWA-OH)
- Concentration in blood, Mean ± St. D. ([1]; 5 min p.i.): 2.28 ± 0.23 nmol
- Concentration in blood ([1]; 5 min p.i.): 2.56 nmol and 2.09 nmol and 2.47 nmol and 2.02 nmol and 2.24 nmol
- Concentration in blood, Mean ± St. D. ([1]; 1 hour p.i.): 1.25 ± 0.35 nmol
- Concentration in blood ([1]; 1 hour p.i.): 1.40 nmol and 1.31 nmol and 1.73 nmol and 0.93 nmol and 0.88 nmol
- Concentration in blood, Mean ± St. D. ([1]; 2 hours p.i.): 0.59 ± 0.15 nmol
- Concentration in blood ([1]; 2 hours p.i.): 0.64 nmol and 0.40 nmol and 0.67 nmol and 0.47 nmol and 0.76 nmol
- Concentration in blood, Mean ± St. D. ([1]; 4 hours p.i.): 0.51 ± 0.07 nmol
- Concentration in blood ([1]; 4 hours p.i.): 0.41 nmol and 0.49 nmol and 0.57 nmol (2×) and 0.48 nmol
- Concentration in blood, Mean ± St. D. ([1]; 6 hours p.i.): 0.38 ± 0.06 nmol
- Concentration in blood ([1]; 6 hours p.i.): 0.41 nmol and 0.38 nmol and 0.32 nmol and 0.35 nmol and 0.46 nmol
- Concentration in blood, Mean ± St. D. ([1]; 16 hours p.i.): 0.12 ± 0.03 nmol
- Concentration in blood ([1]; 16 hours p.i.): 0.11 nmol and 0.13 nmol and 0.10 nmol and 0.16 nmol and 0.08 nmol
- Concentration in blood, Mean ± St. D. ([1]; 26 hours p.i.): 0.02 ± 0.01 nmol
- Concentration in blood ([1]; 26 hours p.i.): 0.02 nmol (3×) and 0.03 nmol (2×)
- half-life ([1]; female, BALB/cAcNHsd, mouse, whole blood, intravenous, 0.5 mg/kg, two-phase kinetics, read-out: characteristic half lifetime of blood clearance, first phase (converted)): 36 min
- characteristic time for complete clearance of the blood, second phase ([1]; two-phase kinetics): 7.5 h
- signal drop in first phase of blood clearance ([1]; two-phase kinetics): 66%
- tissue uptake (in vivo): 10 to 15 %ID/g
- RBC lysis (red blood cells (RBCs)): less than 2%
